Measurements reported in PMC11445476, “CHC22 clathrin recruitment to the early secretory pathway requires two-site interaction with SNX5 and p115” (The EMBO Journal, 2024).
Residue numbers refer to the chain shown, from its start.

T1: His-SUMO-tagged CHC17 terminal domain (human, UniProt Q00610 1-364)
T1 construct: CHC17 clathrin heavy chain, N-terminal domain (TD), residues 1-364; also called CHC17 TD; His-bdSUMO-CHC17 TD; source: E. coli Rosetta 2 pLysS, purified (HisTrap, size exclusion); not shown: His, N-terminal, kept; bdSUMO, N-terminal, kept
T1 sequence (looked up): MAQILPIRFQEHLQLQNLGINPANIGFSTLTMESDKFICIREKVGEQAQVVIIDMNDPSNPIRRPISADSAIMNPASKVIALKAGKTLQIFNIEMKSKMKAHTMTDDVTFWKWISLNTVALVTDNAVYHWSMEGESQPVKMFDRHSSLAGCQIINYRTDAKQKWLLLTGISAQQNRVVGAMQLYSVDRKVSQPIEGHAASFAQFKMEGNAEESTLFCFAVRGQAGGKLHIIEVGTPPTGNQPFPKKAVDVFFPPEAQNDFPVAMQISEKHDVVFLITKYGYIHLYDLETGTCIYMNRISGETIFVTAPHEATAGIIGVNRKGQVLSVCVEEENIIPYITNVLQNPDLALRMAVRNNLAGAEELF

T2: full-length GST-p115 (UniProt O60763 1-962)
T2 construct: p115, full-length, residues 1-962, amplified from pIY119 into pGEX3; not shown: GST, N-terminal, kept
T2 sequence (looked up): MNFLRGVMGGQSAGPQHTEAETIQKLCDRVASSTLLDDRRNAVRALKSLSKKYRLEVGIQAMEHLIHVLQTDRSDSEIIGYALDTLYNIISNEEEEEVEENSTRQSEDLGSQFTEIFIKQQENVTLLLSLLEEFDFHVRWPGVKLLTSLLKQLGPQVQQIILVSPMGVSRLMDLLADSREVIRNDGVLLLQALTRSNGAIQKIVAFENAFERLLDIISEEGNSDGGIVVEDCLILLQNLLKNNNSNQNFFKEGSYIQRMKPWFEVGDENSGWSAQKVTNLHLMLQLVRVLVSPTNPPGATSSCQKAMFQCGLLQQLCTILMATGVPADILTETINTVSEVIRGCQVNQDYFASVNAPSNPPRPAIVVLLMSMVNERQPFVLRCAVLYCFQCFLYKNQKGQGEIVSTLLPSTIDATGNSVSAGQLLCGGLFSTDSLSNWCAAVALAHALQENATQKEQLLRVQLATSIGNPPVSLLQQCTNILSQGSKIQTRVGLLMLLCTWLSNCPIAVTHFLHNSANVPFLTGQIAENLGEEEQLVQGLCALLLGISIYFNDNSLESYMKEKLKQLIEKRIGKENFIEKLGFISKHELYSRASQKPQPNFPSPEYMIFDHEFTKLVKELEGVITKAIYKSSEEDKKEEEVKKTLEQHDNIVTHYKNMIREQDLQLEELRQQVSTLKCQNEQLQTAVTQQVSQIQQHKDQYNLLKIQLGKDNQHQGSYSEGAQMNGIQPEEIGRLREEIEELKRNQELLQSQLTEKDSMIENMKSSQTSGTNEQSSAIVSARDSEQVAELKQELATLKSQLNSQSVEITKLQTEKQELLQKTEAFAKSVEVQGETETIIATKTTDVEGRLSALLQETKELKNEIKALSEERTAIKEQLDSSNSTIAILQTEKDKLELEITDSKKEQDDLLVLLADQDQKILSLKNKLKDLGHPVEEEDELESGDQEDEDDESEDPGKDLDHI

T3: full-length His-p115 (UniProt O60763 1-962)
T3 construct: p115, full-length, encoded by plasmid pIY119 (gift, Munro lab); not shown: 6xHis, N-terminal, kept
T3 sequence (looked up): T2 sequence (looked up)

T4: His-tagged CHC22 Hub (human, UniProt P53675 1074-1640)
T4 construct: CHC22 clathrin heavy chain, Hub domain (C-terminal third), residues 1074-1640; also called His-CHC22-Hub; not shown: 6xHis, N-terminal, kept
T4 sequence (looked up): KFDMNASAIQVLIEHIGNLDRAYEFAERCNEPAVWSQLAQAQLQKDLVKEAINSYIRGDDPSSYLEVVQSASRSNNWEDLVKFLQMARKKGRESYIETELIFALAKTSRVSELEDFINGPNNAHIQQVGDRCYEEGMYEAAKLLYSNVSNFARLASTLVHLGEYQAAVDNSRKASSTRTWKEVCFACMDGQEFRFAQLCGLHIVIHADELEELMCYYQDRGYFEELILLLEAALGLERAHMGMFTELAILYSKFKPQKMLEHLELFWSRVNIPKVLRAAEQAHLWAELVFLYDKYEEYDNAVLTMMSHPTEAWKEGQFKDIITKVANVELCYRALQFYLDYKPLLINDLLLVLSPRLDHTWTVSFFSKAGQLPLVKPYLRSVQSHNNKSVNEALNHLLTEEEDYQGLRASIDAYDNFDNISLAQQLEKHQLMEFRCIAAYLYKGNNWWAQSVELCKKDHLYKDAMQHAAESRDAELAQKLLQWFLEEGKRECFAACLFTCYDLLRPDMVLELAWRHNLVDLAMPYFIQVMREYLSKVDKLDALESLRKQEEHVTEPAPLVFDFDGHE

T5: full-length GST-SNX5 phosphomimetic S226E mutant (human, UniProt Q9Y5X3 1-404, S226E)
T5 construct: sorting nexin 5, human, full-length (1-404) with phosphomimetic point mutation S226E in the BAR domain; The making of the mutant is not described; also called GST-SNX5 S226E; not shown: GST, N-terminal, kept
T5 sequence (looked up): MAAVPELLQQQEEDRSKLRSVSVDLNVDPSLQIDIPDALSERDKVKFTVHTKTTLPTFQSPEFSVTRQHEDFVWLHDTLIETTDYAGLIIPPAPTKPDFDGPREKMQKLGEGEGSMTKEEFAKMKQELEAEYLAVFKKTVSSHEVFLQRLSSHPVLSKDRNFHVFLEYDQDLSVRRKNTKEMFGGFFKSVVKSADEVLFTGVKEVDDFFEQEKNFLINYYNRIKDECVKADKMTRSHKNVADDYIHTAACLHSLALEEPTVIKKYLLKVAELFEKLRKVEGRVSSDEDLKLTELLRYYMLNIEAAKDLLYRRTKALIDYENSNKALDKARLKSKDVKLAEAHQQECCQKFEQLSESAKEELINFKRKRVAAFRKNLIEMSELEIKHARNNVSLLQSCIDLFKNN

B1: GST-GGA2-HE (domain or fragment, UniProt Q9UJY4 316-613, looked up)
chain: GRVTFGNRVTSSLGDIPVSRVFQNPAGCMKTCPLIDLEVDNGPAQMGTVVPSLLHQDLAALGISDAPVTGMVSGQNCCEEKRNPSSSTLPGGGVQNPSADRNLLDLLSAQPAPCPLNYVSQKSVPKEVPPGTKSSPGWSWEAGPLAPSPSSQNTPLAQVFVPLESVKPSSLPPLIVYDRNGFRILLHFSQTGAPGHPEVQVLLLTMMSTAPQPVWDIMFQVAVPKSMRVKLQPASSSKLPAFSPLMPPAVISQMLLLDNPHKEPIRLRYKLTFNQGGQPFSEVGEVKDFPDLAVLGAA
notes: GGA2, hinge-GAE (hinge-ear) fragment, residues 316-613; also called GGA2-hinge-GAE; hinge-ear fragment of GGA2; not shown: GST, N-terminal, kept
B2: His-SUMO-tagged CHC22 terminal domain, wild-type (domain or fragment, human, UniProt P53675 1-364, looked up)
chain: MAQILPVRFQEHFQLQNLGINPANIGFSTLTMESDKFICIREKVGEQAQVTIIDMSDPMAPIRRPISAESAIMNPASKVIALKAGKTLQIFNIEMKSKMKAHTMAEEVIFWKWVSVNTVALVTETAVYHWSMEGDSQPMKMFDRHTSLVGCQVIHYRTDEYQKWLLLVGISAQQNRVVGAMQLYSVDRKVSQPIEGHAAAFAEFKMEGNAKPATLFCFAVRNPTGGKLHIIEVGQPAAGNQPFVKKAVDVFFPPEAQNDFPVAMQIGAKHGVIYLITKYGYLHLYDLESGVCICMNRISADTIFVTAPHKPTSGIIGVNKKGQVLSVCVEEDNIVNYATNVLQNPDLGLRLAVRSNLAGAEKLF
notes: CHC22 clathrin heavy chain, N-terminal domain (TD), residues 1-364; also called CHC22 TD; His-bdSUMO-CHC22 TD; source: E. coli Rosetta 2 pLysS, purified (HisTrap, size exclusion); not shown: His, N-terminal, kept; bdSUMO, N-terminal, kept
B3: full-length GST-SNX5 wild-type (natural protein, human, UniProt Q9Y5X3 1-404, looked up)
chain: T5 sequence (looked up) with E226S
notes: sorting nexin 5, human, full-length, residues 1-404, amplified from human cDNA of the GM25256 cell line, in pGEX3; also called GST-SNX5 WT; WT; source: E. coli Rosetta 2 pLysS, purified (GSTrap, size exclusion); not shown: GST, N-terminal, kept
B4: His-tagged CHC22 TxD (domain or fragment, human, UniProt P53675 1521-1640, looked up)
chain: WAQSVELCKKDHLYKDAMQHAAESRDAELAQKLLQWFLEEGKRECFAACLFTCYDLLRPDMVLELAWRHNLVDLAMPYFIQVMREYLSKVDKLDALESLRKQEEHVTEPAPLVFDFDGHE
notes: CHC22 clathrin heavy chain, trimerization domain; methods give residues 1521-1640, the results 1520-1640; Limits told in two ways (1521-1640 in methods, 1520-1640 in results); also called His-22TxD; His-CHC22 TxD; source: E. coli BL21 (DE3), purified (HisTrap, size exclusion); not shown: 6xHis, N-terminal, kept

Assays:
Conditions in all cases: both partners purified
[1] = target: T1, His-SUMO-tagged CHC17 terminal domain; assay: pull-down; GST, GST-GGA2-HE or GST-p115 on glutathione beads, 12.5 µg purified His-bdSUMO-CHC17 TD in 250 µl CHC17 PD buffer for 60 min, immunoblot
[2] = target: B2; assay: pull-down; GST, GST-GGA2-HE or GST-p115 on glutathione beads, 12.5 µg purified His-bdSUMO-CHC22 TD (WT or Chim) in 250 µl CHC22 PD buffer for 45 min, immunoblot
[3] = target: T2, full-length GST-p115; assay: as above
[4] = target: T6, full-length His-SNX1 (UniProt Q13596 1-522)
T6 construct: SNX1, full-length, residues 1-522, sub-cloned from a plasmid of the Cullen lab into pET15b; also called recombinant SNX1; source: E. coli BL21 (DE3), purified (HisTrap, size exclusion); not shown: 6xHis, N-terminal, kept

[5] = target: T3, full-length His-p115; assay: pull-down; His-tagged bait on Ni-NTA HisPur beads, 15 µg purified GST-only or GST-SNX5 as prey in 250 µL His PD buffer for 45 min, immunoblot
[6] = target: T4, His-tagged CHC22 Hub; assay: as above
[7] = target: B3
[8] = target: T5, full-length GST-SNX5 phosphomimetic …

T6 sequence (Q13596 whole entry, the tested form may be a part): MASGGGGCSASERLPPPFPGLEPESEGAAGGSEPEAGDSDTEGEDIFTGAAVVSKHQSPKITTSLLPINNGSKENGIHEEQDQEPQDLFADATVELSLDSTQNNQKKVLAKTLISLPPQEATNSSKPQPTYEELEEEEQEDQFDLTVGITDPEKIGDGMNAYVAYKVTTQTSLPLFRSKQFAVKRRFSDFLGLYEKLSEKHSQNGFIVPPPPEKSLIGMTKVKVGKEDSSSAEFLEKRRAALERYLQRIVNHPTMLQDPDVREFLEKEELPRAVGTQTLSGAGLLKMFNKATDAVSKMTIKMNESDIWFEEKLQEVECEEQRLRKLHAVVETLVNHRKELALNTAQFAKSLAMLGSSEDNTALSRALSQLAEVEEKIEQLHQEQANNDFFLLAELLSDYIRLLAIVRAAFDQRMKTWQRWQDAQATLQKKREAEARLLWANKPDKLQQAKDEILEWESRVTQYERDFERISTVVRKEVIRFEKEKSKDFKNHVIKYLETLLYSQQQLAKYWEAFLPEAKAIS

Binder: B1
binding result [1]: binds
binding result [2]: binds

Binder: B2
binding result [3]: binds

Binder: B3
binding result [4]: binds
binding result [5]: binds
binding result [6]: binds

Binder: B4
binding result [7]: binds
binding result [8]: binds
